Experimental findings from publication PMC5986104 are described below.

The target of the assay is NOTCH2-Myc (human) (UniProt Q04721).
Sequence of UniProt Q04721 (Q04721 26-2471): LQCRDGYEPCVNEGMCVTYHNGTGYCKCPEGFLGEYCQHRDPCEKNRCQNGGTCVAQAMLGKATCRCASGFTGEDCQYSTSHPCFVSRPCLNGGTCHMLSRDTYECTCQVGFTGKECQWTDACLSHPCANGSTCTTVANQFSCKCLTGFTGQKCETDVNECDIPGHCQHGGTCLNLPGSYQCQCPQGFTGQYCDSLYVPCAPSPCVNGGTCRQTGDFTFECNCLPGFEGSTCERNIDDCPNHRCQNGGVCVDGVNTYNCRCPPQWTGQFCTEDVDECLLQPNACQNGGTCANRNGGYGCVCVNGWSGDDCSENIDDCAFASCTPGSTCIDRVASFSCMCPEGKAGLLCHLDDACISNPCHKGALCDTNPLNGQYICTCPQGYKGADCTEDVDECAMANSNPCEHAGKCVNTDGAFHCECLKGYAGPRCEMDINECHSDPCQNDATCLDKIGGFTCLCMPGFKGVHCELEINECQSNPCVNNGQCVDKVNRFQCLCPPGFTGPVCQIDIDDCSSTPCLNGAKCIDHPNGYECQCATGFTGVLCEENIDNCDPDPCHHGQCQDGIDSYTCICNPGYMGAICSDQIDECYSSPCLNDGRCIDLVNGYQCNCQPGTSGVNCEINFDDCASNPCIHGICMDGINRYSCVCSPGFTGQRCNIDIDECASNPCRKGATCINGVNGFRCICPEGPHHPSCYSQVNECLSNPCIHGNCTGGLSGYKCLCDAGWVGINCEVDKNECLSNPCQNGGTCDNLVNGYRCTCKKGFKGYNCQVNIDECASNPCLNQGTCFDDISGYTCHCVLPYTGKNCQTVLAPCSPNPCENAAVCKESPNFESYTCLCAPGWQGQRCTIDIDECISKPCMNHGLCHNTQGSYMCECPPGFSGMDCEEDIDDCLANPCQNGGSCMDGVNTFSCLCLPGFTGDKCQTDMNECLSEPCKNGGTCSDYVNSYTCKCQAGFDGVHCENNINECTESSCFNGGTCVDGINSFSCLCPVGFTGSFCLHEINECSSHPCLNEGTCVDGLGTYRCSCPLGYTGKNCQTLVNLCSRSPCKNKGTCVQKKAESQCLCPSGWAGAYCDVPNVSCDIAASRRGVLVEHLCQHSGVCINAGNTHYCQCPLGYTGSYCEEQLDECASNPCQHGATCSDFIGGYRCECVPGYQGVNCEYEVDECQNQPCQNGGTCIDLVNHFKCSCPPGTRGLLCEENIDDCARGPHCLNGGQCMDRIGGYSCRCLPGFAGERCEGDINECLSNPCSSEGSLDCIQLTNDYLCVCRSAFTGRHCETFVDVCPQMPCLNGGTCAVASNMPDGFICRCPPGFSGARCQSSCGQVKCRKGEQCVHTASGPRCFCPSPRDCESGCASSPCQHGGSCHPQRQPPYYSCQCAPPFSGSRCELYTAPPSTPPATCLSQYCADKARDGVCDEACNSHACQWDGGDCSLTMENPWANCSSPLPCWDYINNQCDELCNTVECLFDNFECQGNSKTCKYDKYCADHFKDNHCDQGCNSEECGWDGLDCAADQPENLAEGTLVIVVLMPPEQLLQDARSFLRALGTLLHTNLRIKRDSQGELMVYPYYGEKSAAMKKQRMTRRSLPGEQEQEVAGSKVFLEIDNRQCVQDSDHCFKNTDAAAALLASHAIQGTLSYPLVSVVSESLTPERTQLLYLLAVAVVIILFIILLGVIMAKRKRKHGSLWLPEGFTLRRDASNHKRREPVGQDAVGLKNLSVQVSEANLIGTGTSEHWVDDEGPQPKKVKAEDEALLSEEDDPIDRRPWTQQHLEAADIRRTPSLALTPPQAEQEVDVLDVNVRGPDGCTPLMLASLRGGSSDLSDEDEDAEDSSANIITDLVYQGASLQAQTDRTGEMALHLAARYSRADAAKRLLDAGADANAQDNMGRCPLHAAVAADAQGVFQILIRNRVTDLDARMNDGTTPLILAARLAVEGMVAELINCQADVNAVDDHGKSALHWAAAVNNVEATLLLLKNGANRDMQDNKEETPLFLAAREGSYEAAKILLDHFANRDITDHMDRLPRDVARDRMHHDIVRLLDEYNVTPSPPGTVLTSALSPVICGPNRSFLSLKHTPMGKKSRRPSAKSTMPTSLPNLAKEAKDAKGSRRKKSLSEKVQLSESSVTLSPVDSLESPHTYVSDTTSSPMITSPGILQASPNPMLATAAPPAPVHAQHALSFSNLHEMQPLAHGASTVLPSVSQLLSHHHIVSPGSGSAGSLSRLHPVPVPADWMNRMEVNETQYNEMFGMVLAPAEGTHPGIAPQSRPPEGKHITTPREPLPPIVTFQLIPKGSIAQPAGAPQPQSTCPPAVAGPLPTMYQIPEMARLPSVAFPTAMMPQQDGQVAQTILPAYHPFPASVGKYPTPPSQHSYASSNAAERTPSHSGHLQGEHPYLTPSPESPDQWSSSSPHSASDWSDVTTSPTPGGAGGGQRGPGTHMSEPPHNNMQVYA

On to “NOTCH2NL-HA^L,T197I (from UniProt P0DPK3 26-275) (natural protein)”, for which the NOTCH2-GAL4 reporter activation under baseline conditions, increase (Figure 6J) was found to be 63%.
Still for that read-out and setting: the same measure for “NOTCH2NL^L (from UniProt P0DPK3 26-275) (natural protein)”: 21%.
NOTCH2NL^Sh,T197I (natural protein): the NOTCH2-GAL4 reporter activation under baseline conditions, increase (Figure 6H) was determined as 31% and the NOTCH2-GAL4 reporter activation with JAG2 co-culture, increase (Figure 6I) turned out to be 53%.
